Experimental findings from patent US10508147B2, “Anti-nodal antibodies and methods of using same” (ANN AND ROBERT H. LURIE CHILDREN'S HOSPITAL OF CHICAGO, priority 2014, dated 2019) are described below.

For one assay, the system named is C8161 cells. Kind of assay: C8161 orthotopic (subcutaneous) xenograft in Nude mice, intratumoral treatment. It is filed as in vivo. As to the method: Experiments were carried out to determine the in vivo effects of 3D1 mAb on primary melanoma. To this end, 500,000 C8161 cells were injected subcutaneously in Nude mice. Palpable tumors were then injected directly with either 700 μg of total 3D1 mAb or IgG control antibody (alternate day intratumoral injection of 100 μg over 14 days). Mice were then sacrificed and subcutaneous tumors harvested and processed as previously described. To evaluate the effect of 3D1 mAb in the presence of the BRAF(V600E) mutation, a third orthotopic xenograft model was established in Nude mice via subcutaneous injection of approximately 150,000 A375SM human metastatic melanoma cells. Mice were treated IP with 3D1 mAb or IgG control, as described above, or 3 mg/kg of dabrafenib.
Four micron thick, formalin fixed, paraffin embedded tissue sections were prepared and immunohistochemistry was carried out on a Dako Plus autostainer (DAKO, Inc, Carpenteria, Calif.). […] Similar to the lung tumor burden evaluation described above, mean percentage of positive staining±SEM was determined by 2 different observers, each calculating the ratio of positive cells/total number of cells×100 for 4 separate high power fields (63× objective) from at least 2 different mice per group.

In assay [1] the target is T1, rhNodal/rhCripto-1 complex (Homo sapiens, UniProt Q96S42).
T1 construct: E. coli derived His238 Leu347, with an N-terminal Met; purchased R&D Systems
T1 sequence (Q96S42 238-347): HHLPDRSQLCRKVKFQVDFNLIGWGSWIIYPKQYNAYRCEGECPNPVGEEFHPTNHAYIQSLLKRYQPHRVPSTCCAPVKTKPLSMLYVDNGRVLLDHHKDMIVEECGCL
Kind of assay: SPR competition assay: rhNodal pre-incubated with 3D1 injected over Cripto-1-derivatized chip. It is filed as binding. Here is the method:
Next, experiments were conducted to assess the ability of 3D1 antibodies to inhibit binding between Nodal and Cripto-1 through SPR experiments. Experiments were performed on CM5 sensor chips with immobilized Cripto-1.
The antibody at 1:1 molar ratio prevents the binding of hNodal to hCripto-1-1 by about 70%. Accordingly, the invention provides that, in one embodiment, 3D1 can be used to prevent binding between Cripto-1 and Nodal (e.g., for therapeutic uses described herein (e.g., to inhibit and/or neutralize Cripto-1-mediated Nodal signaling)).
Competition assays. Competition assays were performed using Biacore sensor chips derivatized with rhCripto-1-1. The binding between immobilized rhCripto-1-1 and rhNodal was assessed by injecting solutions of the Nodal protein at increasing concentrations. rhNodal was incubated at 5 nM with 3D1 mAb at concentrations matching 1:0.5, 1:1 and 1:2 molar ratios (protein:mAb).
SPR analyses were performed at 25° C. using HBS as running buffer. Protein immobilization was carried out following the canonical amine coupling chemistry using the surface immobilization wizard procedure, operating at 5 μL/min. […] Dissociations were monitored for at least 3 additional minutes. […]

“Also recorded” adds a separate entry of the source.

B1: 3D1: mouse monoclonal anti-Nodal antibody raised against hNodal(44-67); light chain SEQ ID NO:1, heavy chains SEQ ID NO:2 and 3 (protein)
light: DIKMTQSPASLSASVGETVTITCRASGNIHNYLAWYQQKQGKSPQLLVYNAKTLADGVPSRFSGSGSGTQYSLKINSLQPEDFGSYYCQHFWSTPHVRCWDQAGTETEAW
heavy 1: VKLVESGGGLVKPGGSLKLSCAASGFTFSSYAMSWVRQTPEKRLEWVASISSGGCTYYPDSVKGRFTISRDNARNILYLQMSSLRSEDTAMYYCARGSMITADGNSLLLCYGLLGSRNLXHR
heavy 2: VKLVESGGGLVQPGGSMKLSCVASGFTFRNYWMSWVRQSPEKGLEWVAEIRLKSDNYAARYAESVKGKFTISRDDSKSRLYLQMNSLRAEDTGIYYCTGIRRFAYWGQGTL
modifications: not fully specified; (120)..(120) Xaa can be any naturally occurring amino acid
As for B1, the “mean percentage (±SEM) of cells with strong positive nuclear P-Smad2 staining” value in the assay with C8161 cells (IHC of tumor sections, N=4) is listed as 51.3%±3.3%. Moreover, the tumor volumes entry in the assay on C8161 cells (direct intratumoral injection, days 8 to 14, vs IgG control, listed as 3D1 mAb) was “significantly smaller; also recorded: Reduced tumor volumes”. Moreover, the “inhibition of the binding of Nodal to Cripto-1” value in assay [1] (3D1 mAb at 5 nM (1:1 molar ratio), rhNodal 5 nM) is reported as “approximately 70%”. Further, in assay [1] (antibody at 1:1 molar ratio, 5 nM Nodal), the “prevention of binding of hNodal to hCripto-1” value is given as “about 70%”.
